# Assay results from paper doi:10.1101/2023.01.30.526200, “The virus-encoded ion channel “viroporin” activity of the agnoprotein is required for BK Polyomavirus release from infected kidney cells” (bioRxiv, 2023).
# “And” between values parts separate entries of the source, which are not always exact repeats. Equal values may be shown once.
# B1: recombinant 10xHis BKPyV agnoprotein (natural protein)
# chain: MVLRQLSRQASVKVGKTWTGTKKRAQRIFIFILELLLEFCRGEDSVDGKNKSTTALPAVKDSVKDS
# notes: agnoprotein of BK polyomavirus, DNA codon optimised for E. coli, amplified with primers from the ATG to the stop codon and cloned into pET19b (KpnI/BamHI); also called 10xHis BK agnoprotein; recombinant agnoprotein; source: E. coli DE3 gold, purified (NiNTA, HiTrap SP ion exchange, C4 solid phase extraction; dissolved in DMSO); not shown: His10, N-terminal, kept
# Molecular target: the molecule itself
# Assay: SDS-PAGE (SDS-resistant oligomers); increasing concentrations of purified His-BKPyV agnoprotein on SDS PAGE, probed with anti-agnoprotein or anti-His antibody; oligomerisation concentration dependent
protein,measurement,value
B1,stoichiometry N,2 and 4 and 5
